Assay results as given in the supplement of paper PMC12636428.

Tested on: Saccharomyces cerevisiae
Assay: transcriptional activation domain activity (GFP:mCherry ratio, weighted mean of sorted bins, harmonized to initial dataset scale) (arbitrary fluorescence ratio units); higher = stronger transcriptional activation
Details: beta-estradiol 1 µM; induction time 4 h
Procedure, shortened: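 Barcoded tiles were sequenced after cells were sorted into 8 bins by GFP:mCherry ratio. Before sorting, cultures had been diluted 1:5 into SC with 1 uM beta-estradiol and held for 4 hours at 30 °C. The tiles were fused to an estradiol-inducible synthetic transcription factor and integrated at URA3 in yeast diploids carrying a GFP reporter. Activation activity is the read-weighted mean of bin median fluorescence, averaged over barcodes and linearly mapped onto the initial dataset scale, and tiles under 50 reads were left out.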

Sequence | transcriptional activation domain activity
RKREEEDARVQEAALKEEEDARVREAARKEEEEEAERLKRRREEEDARVQEAA | 22400
QENTLPATQANSSLLETYPIVQSNPVTTTIKESPNSIMAGWDNWESDMVWRDV | 90100
YTSLIILVTWLSIVFSKFVLHRRTFGLVFVHLHFFFLFALFSFFFSYCVCIRI | 60600
WSVLLCFAVSFFSFSFLSFWAVTALCYGFVFVFFILLCVLCCFSFAFSHVYLF | 49600
HERLKLCNYQQAPDNIWCQYWFMGSFLVFFSNLDAVIDLPVMILLDLMPQICF | 44100
HLQTITINSEGDCGHCLSKYGILVIPTLERVVLVSREGRYPWSSWYLELRVFS | 32100
EVEGEGEDGEEEAAPPPKKVRASGRSKKIEYKEESEEEAPAPKKTRGKKAATK | 6720
DKKNVDINEFLLDESVSNLFTTRQIDLFKKNVNLYSPLFQNQKDAVSSTSLTP | 81800
MLYQLFYFSRTKLIILVFFVLFSLLIISLFFFLFIPPFTFFFPFHMPEVFQNI | 38200
MDVEAKGRADRDAKRNPTACEHCRAARTRCQPSEQPGVCKKCLALKRECISRT | 16500
SEAESEAEAEAEEATEPEVSQEKPKRGRKKKEVEVEIKEKPSRKPAGRPKKEK | 12300
IRGLLILRYQRGYKDLNHCEPQVIFYDRLCGFLVLGWFLHYFPFFLMSRQLFL | 88200
SLVLPCLSSYHYRFIDDYHVLHAQVKLMQGVLWWSMVQNITVYLLFLLLFLFA | 25200
LNPDYIVGLSSLILVMCYIYKACYVSLLLSMHPLILLCMLCSSFTFIAIIVMI | 47700
DSAPTKRGRGRPKGSKNKNKSVASPSSPTSGAGSSAPRKRGRPPKAKPAESGA | 38300
MSLFSILYFYYTICFICFLTFLTIKDLHIYLLLKFQITIFLFCYFFVCFLSPL | 76600
LLECREDYINNNIRYCDDNKILLKSMIQMFVDLIPFSDKFLGLIFHIVPSFMH | 44700
EARNIVGIKNIDLYKGPLFVFWAPMNPSHVGWNGGMHLYAWRCKLLSNLPYHF | 25600
MDLVILMVYLNNNNNILIIIIMISTLIIHQLVQLIYLNLWLGCILWKTVLCSG | 42900
AVAALVGVGFGLSGYFLVCNVYPILSSADSKSLCLLVLVLLALSFKVLFFNYY | 48300
MGSNANKRREDGPKKEQLQKRVLHIRSVARSTKGGKIRSSSAIVVVGNGNGVG | 42400

Sequence | transcriptional activation domain activity
MFRPYSKFVLPSFFDIVLIYIFQEFGREALIWCQLCLQRVLPFLGLYHMGEML | 38500
REYNRMLRFYGVQDHQVKNTRLSVKEAFMLIIYRCVEVFCLFILSLPMIVLAS | 58200
RDNESYSATNNNNLLRPDDNDYNNEALSDIDRSFEDIINGRKLKLKKSRRRSS | 15300
LKHGMMRLDFLCKFSMYGGIERDNQFVKKATGVAFPCVFVLRCLKRPVLTESE | 55100
LKIKLLVAWLWLLDTIHTCLLCSSNWRSLIVHYGDRRALDFIPTTTALGILFT | 34100
MEGRVGGDQKGGGFIFVYGSGVLDWGVFFRFIYISLSFFVWGLFLCVSFAFVL | 41200
PKADGDAEPKPKAPRGTKRKAAEETNGAEEGGEAPAAKKAKPASKAKPASKAA | 16400
MVQCAVAECTEEGKSQCGRCKQRFYCSADCQQKDWKVHKKNCKSPAATSAQLS | 23100
SSSAESSKASSSKKVASTKPKSKSAGTKAKPAAKKPAKKAAPKKKKPAKRAAK | 34500
LTYRVYIMGIGIWMTYLGIGWFLCIILPFLFRFCRLMFWWRKLCFLQALFFFF | 62200
KDNATTAAVAAASSEKDDEKKAKEENKPDDKKTEEKKAEEKKSDDTAKDDASK | 34300
IVLYLRCFWLSVMFYTYSLFFIKMTFLLNYYRLLLVSKMRSVCIAAIVIIVLW | 72100
VAECLKAMVKWPITMSPTCFHKRLIPCIFFWSQNLLGILLLLHLTEQVPILVR | 72600
MVEGCLLHFQFSFPPFFFCFFFGHLGGFVNFCDSLIFKVLRALGLVMNVFTII | 70500
MMACLVSGIGWCLLYFTCMYLLLIYYILSLFYPPLASCNSFSFFFLSFFFFAG | 67200
VILYLLMLIGNVTVVSWIVSLFFLSRKSYLKLGFKMVLVRKWYFKNVCQYVDY | 67400
MGASLVVFLLFFHLLFKNGLDLLIFPFSFFYSCTIFLSFLSFLYFSFCTHVFF | 59800
RVEAQVRDRRVEAQVRDRRAEAQVRARDHRSKVQVRNRQSKAEAEAQVRSQAR | 33900
VLTLTFNDGKKHEDLSKQLLFVIHDIFSCDQNSPGYVLLRLLRSFLVLDVYMS | 65000
NLLYQLGVFVARSSTPFIRLHNLYLPSCLQILNLLLLVSQSLYWWIPSVYLVF | 76500
MALFLGCIDFGQYKLNLEKYSGWLTIPLVPSEQALFYHTVKIIYSIFLHPLRN | 66500

Sequence | transcriptional activation domain activity
YILARYSIFFLYYLQFSRGYIPEYLNPTLPSYEEIESWLFLKTVWFQVLIWTV | 65500
RTLLVVLISMLYFLTVEMFLPVFYLFDESLYNFLSWILTAFWSRLALWVLGFY | 56000
MNLLFITFFLLVMWVVWFICVVVPFFLLLLLCFFSFLFFRLFGAGWLGWVGNF | 42500
MELVLHCFYLGAIRKPGHTYDSWSSDTPFQLSMIGDSNLLIIWLWLLIPWRSF | 80500
VKRVAFGCLSTILALYLVHKYTYEHPFILSDNRHYSFYVWKKIYRRHWMVRYC | 61000
MIWCSFLLALSWSYFCDLPCFFFFFFFFFFFFFFFADIYCSFLSFKLITPISF | 52600
MQTSLLPLFSFLSFLFLLVFLLLLSLYLAFSHVAFSFLSLFFCYISFFLFYSF | 26200
MPPLLQLRLVHFLQLCLLLLLLLLRLHLLELLHFLLVFLLHRSILLLCQICSL | 54800
LAEVILLPDLCGFCCFSMRFVVLLDLIGTLTLPVTCLYLIYLIYVMASGNGPF | 50300
AVVILGDLHPRGYNSNWFLMYYTGWLTFIFFITLLWALANLAWLRYTARVLPC | 29300
QVGRKANQKEEKETEKERTEKDKKQGRVGVGGVAKTAIVAGAWCYVVGVVAEL | 34600
EAATKVDAAADGTDEVADRIADLDVSTSSNSKKKKKNSKSKKKAAKEEPVRLR | 47300
SHFLPLLLFLSLSFILFSFPFILPFSLISLFSYFFLPFLHISTLFHSYFSFLL | 47400
MRDNQYPPYLLSVVHFTCQPPFGVRNLHSPIFILFQYVPHVLLIHFSSFVIFF | 64300
LNWYWLASTMYFLYGESVIYYFKHIVLVDKVLLPLATHHRFISFLLYLMGFVF | 93000
AFIHRLHEVYIVAWCMKNVHFMYLHPGVPFYVLCDCTRGDTIMTVHACAEPPP | 63000
ESSSDEEEMTVAQKMAAQRKAEAAARRAKAHEEALAARSKDDLRSPICCILGH | 53200
MGWVHLIGRCLILPVHYVVPFFIFFYFAYTSILTTSIGLLGMDLSLRLVFLCS | 51000
TFLLLPIFVCPHPNLLFGLGFSLILHACLRQIFLSSLVICVFLSLLVIYMLYV | 50900
LMVDEPFEHRLFFLLLFQEGNVCQAQSFQLSGFECMCMVSSQFFFLVWVLYFM | 45600
LYLLVEILLLATYAVNYNVQYIVLETVTPIAVSSCLVPHTRFLFRLILFIQGL | 63200

Sequence | transcriptional activation domain activity
SKEKLSAVENSHAIKLEIILEGIGSIMLSHPNDMQLLSRVVRLLVRVAIQFRR | 56500
RYIATGRGFATTRISFSILFSRFAGPSIYLGMRTLLMLLYVTLSFWTPYLIYF | 54700
MIGHDYLLVVVPIPILSLLHVSLLPYFFYFFVLVLVFLYLFLLRFLSFLLLLL | 65700
AAAAKPASGAKTGGKGKGAKSKKSKATVESEDEGEGADGAPAKKKTKKGKTSD | 44200
VGSWTFGSIMVFGFSYLALTVLPNLCLNCPYSTPVSEMSWHLSHRLLLFILLL | 31800
ILRKLGFIVHVQLPYNLMINYLRILGLEDDEVISRKAWNYLNDGLRTNIYVTY | 55800
SEEAQEEAQQPKKKKRTRASDMWKEEGKAEKKEKKKAKKGKKHSKLEEPAEKA | 14500
PEKCGDLVVIRGGRLHFRSSAVRLHLLQQMGKTLLLLKDAHLQLTLRTLLYAR | 46500
EEDNHSGDDNEDDHDSSGVDDDHGGGGDEDDGDGGEGDGGDVMQLYFIHNIIL | 37400
KEDILLTLYENSTFGGLWSKLSDCLTVIRQRGNMLNIATILLPLIEALMVVCK | 54700
WLRPPRWACGRRALLLLSMGLGTVMLLILTGLLTMNQSNGAKLPVVMVFVILF | 32600
PKAEAPKAEAPKPKEEESKKETAKQESKPEPKKADASKIAAPAASKPPAPKPS | 49200
MSPRAFFPPWFDFVHAFLVYALVARRLRLLFLPTHLAMHCTHLSLSLTLLFLL | 60500
SFKPAPAPAAEEAPKTEETPAPAETEAAAEEAKPAEEPKKEEVKEEPKRRSAS | 35500
DDPGATPHDPNDPKRPRACEACRGLKVKCEPDPSNPDGPCKRCAKAGRNCVVT | 16300
KTPAAANKAGGGGAGGKSAGGRGKTQRARGGRVKQATTQKQTATPKQQQTAAK | 24000
MLLPVSYSWLPLLFIPTNASPAFIFLFFVCTYFLNRPCVYCSFLLLILFVTSC | 42200
MSLAHGHLFNRLQAVGPWDSLCCMGCDLSTLYLAALHSPWRVSWWRFLILGLL | 58200
DPTKSVSAYWVPGGDYISPALQILMNEYLLSFCPTITLPQSLILVSKYFGFLL | 60700
FSHIQPGLNVPVRTIMFCFLFNVAFGLLYLGPSVAFGAYVASCTILLNISYAF | 70800
